Experiment [1] has as its target human hair keratin (human hair, cut into 5 mm sections) (human). In words: quantitative hair binding test, anti-polyHis peroxidase conjugate, TMB.
Experiment [2] concerns hair (human). In words: Quantitative binding to hair (KBD activity test hair, Example 10). The conditions noted are these: for binding to hair, KBD-B compared with comparison protein: binding test on hair, result in words. Here is the method: In this test, hair was firstly incubated with KBD and excess KBD was washed off. An antibody-peroxidase conjugate was then coupled via the His tag of the KBD. Nonbound antibody-peroxidase conjugate was washed off again. The bound anti body-peroxidase conjugate [Monoclonal AntipolyHistidine Peroxidase Conjugate, produced in mouse, lyophilized powder, Sigma] can convert a colorless substrate (TMB) into a colored product, which can be measured photometrically at 405 nm. The intensity of the absorption indicates the amount of bound KBD or comparison protein. The comparison protein chosen was, for example, YaaD from B. subtilis, which likewise had—as is necessary for this test—a His tag for the detection. Instead of the His tag, other specific antibodies conjugated with peroxidase can also be used.
(or at least 2 h at room temperature) with gentle swinging movements. • Centrifugation, removal of the supernatant • 3× washing with PBS […] • Incubation with 1 ml monoclonal mouse anti-tag (His6 or HA) antibodies with peroxidase:conjugate (1:2000 in PBS/0.05% Tween 20) [Monoclonal AntipolyHistidine Peroxidase Conjugate, produced in mouse, lyophilized powder, Sigma] for 2-4 h at room temperature, gentle swinging movement • 3× washing with PBS/0.05% Tween 20 • Addition of peroxidase substrate (1 ml/Eppendorf vessel) • Allow reaction to proceed until blue coloration (about 2 minutes). • Stop the reaction with […] of 2 M H2SO4. • The absorption is measured at 405 nm.
Peroxidase Substrate (Prepare Shortly Beforehand):
0.1 ml TMB solution (42 mM TMB in DMSO) +10 ml of substrate buffer (0.1 M sodium acetate pH 4.9) +14.7 μl H2O2 3% strength BSA=Bovine serum albumin PBS=Phosphate buffered salt solution
Tween 20=polyoxyethylene sorbitan monolaureate, n about 20
TMB=3,5,3′,5′-tetramethylbenzidine

Experiment [3] has as its target human skin keratin (human). In words: quantitative skin binding test (human keratinocytes in microtiter plates), anti-His antibody, TMB. The following applies: scale: absorption at 405 nm, standardized to the surface.
Experiment [4] concerns the target human hair keratin (human hair, cut into 5 mm sections) (human). In words: quantitative hair binding test, loss relative to untreated hair after 10% strength SDS treatment.
Experiment [5] deals with human skin keratin (human). In words: quantitative skin binding test, loss relative to untreated skin after 10% strength SDS treatment.
Experiment [6] concerns the target human hair keratin (human hair, cut into 5 mm sections) (human). In words: quantitative hair binding test, anti-polyHis peroxidase conjugate, TMB; protein denatured (not renatured).
Experiment [7] deals with human skin keratin (human). In words: quantitative skin binding test (human keratinocytes in microtiter plates), anti-His antibody, TMB; after 10% strength SDS treatment. The following applies: scale: absorption at 405 nm, standardized to the surface.
The target in experiment [8] is human hair keratin (human hair, cut into 5 mm sections) (human). In words: quantitative hair binding test, anti-polyHis peroxidase conjugate, TMB; protein renatured.
The next experiment concerns hair. In words: Hair-binding activity of KBD-B-panthenol (Example 24a). Here is the method:
In order to check whether KBD-B also binds with coupled panthenol to hair, a quantitative binding assay was carried out (see FIG. 6): In this test, hair was firstly incubated with KBD-B-panthenol and nonbound KBD-B-panthenol was washed off. A peroxidase was then coupled via the His tag of the KBD-B. Nonbound peroxidase was washed off again. The bound peroxidase can convert a colorless substrate (TMB) into a colored product which was measured photometrically at 405 nm. The intensity of the absorption indicates the amount of bonded KBD-B-panthenol. As comparison sample, KBD-B without panthenol was chosen.
Only above a mixing ratio of 1:4 does the hair binding activity decrease. Coupling to lysines or cysteines present in the protein structure which is no longer selective could be responsible for this, which could lead to an unfolding and thus poorer hair coupling of the protein.

Another experiment deals with human keratinocytes. In words: Quantitative binding to skin (Example 15). Here is the method:
(§1) In order to investigate the binding strength of the KBD-D (SEQ ID No.:168) to skin and hair compared to the KBD-B (SEQ ID No.:166), a quantitative test was carried out. In this test firstly hair was incubated with KBD-B or KBD-D and excess KBD-D or -D was washed off. An antibody-peroxidase conjugate was then coupled via the His/tag of the KBD-B or -D. Nonbound antibody-peroxidase conjugate was washed off again. The bound antibody-peroxidase conjugate can convert a colorless substrate (TMB) into a colored product, which was measured photometrically at 405 nm. The intensity of the absorption indicates the amount of bound KBD-B or -D.
The test for binding to skin was carried out with human keratinocytes in microtiter plates as follows. • 2× washing with PBS/0.05% Tween 20 • addition of 1 ml of 1% BSA in PBS and incubation for 1 h at room temperature, gentle swinging movements (900 rpm). • removal of the supernatant • addition of 100 μg of KBD in PBS with 0.03% Tween 20; incubation for 2 h at room temperature and gentle swinging movements (900 rpm). • removal of the supernatant • 3× washing with PBS/0.05% Tween 20 • incubation with 1 ml of monoclonal mouse anti-tag-His6 antibodies for 2-4 h at room temperature, gentle swinging movement (900 rpm) • 3× washing with PBS/0.05% Tween 20 • addition of peroxidase substrate (1 ml/Eppendorf vessels composition see below) reaction until a blue coloration (about 90 seconds). • reaction stopped with 100 μl of 2 M H2SO4. • the absorption was measured at 405 nm.
(§2) Peroxidase Substrate (Prepared Shortly Beforehand):
0.1 ml TMB solution (42 mM TMB in DMSO) +10 ml substrate buffer (0.1 M sodium acetate pH 4.9) +14.7 μl H2O2 3% strength

For experiment [9], the system named is hair (human). In words: Quantitative binding to hair (Example 15). The conditions noted are these: relative to untreated hair. Here is the method:
as §1
In order to characterize the hair binding of the KBD-D compared to the KBD-B, the following binding assay was carried out:
5 mg of hair (human) were cut into sections 5 mm in length and transferred to Eppendorf vessels (protein low-bind). • addition of 1 ml of ethanol for degreasing • centrifugation, removal of ethanol and washing of the hair with H2O • centrifugation, removal of the supernatant • addition of the keratin-binding domains to be tested (coupled to tag—e.g. His6, HA etc.) in 1 ml of PBS/0.05% Tween 20; incubation for 2 h at room temperature with gentle swinging movements • centrifugation, removal of the supernatant • 3× washing with PBS/0.05% Tween 20 • incubation with 1 ml monoclonal mouse anti-tag-(His6 or HA) antibodies with peroxidase conjugate (1:2000 in PBS/0.05% Tween 20) [Monoclonal AntipolyHistidine Peroxidase Conjugate, produced in mouse, lyophilized powder, Sigma] for 2-4 h at room temperature, gentle swinging movement • 3× washing with PBS/0.05% Tween 20 • addition of peroxidase substrate (1 ml/Eppendorf vessel) • allow reaction to proceed until blue coloration (90 seconds). • stop the reaction with 100 μl of 2 M H2SO4.
The absorption was measured at 405 nm
as §2
0.1 ml TMB solution (42 mM TMB in DMSO) +10 ml substrate buffer (0.1 M sodium acetate pH 4.9) +14.7 μl H2O2 3% strength BSA=bovine serum albumin PBS=phosphate buffered salt solution Tween 20=polyoxyethylene sorbitan monolaureate, n about 20 TMB=3,5,3′,5′-tetramethylbenzidine

B1: Comparison protein YaaD from B. subtilis (His-tagged) (protein, UniProt P37527 1-294, looked up)
chain: MAQTGTERVKRGMAEMQKGGVIMDVINAEQAKIAEEAGAVAVMALERVPADIRAAGGVARMADPTIVEEVMNAVSIPVMAKARIGHIVEARVLEAMGVDYIDESEVLTPADEEFHLNKNEYTVPFVCGCRDLGEATRRIAEGASMLRTKGEPGTGNIVEAVRHMRKVNAQVRKVVAMSEDELMTEAKNLGAPYELLLQIKKDGKLPVVNFAAGGVATPADAALMMQLGADGVFVGSGIFKSDNPAKFAKAIVEATTHFTDYKLIAELSKELGTAMKGIEISNLLPEQRMQERGW
In experiment [1], B1 displayed an Absorption at 405 nm of 0.088 A405 nm. In the experiment with hair (human) [2], the “binding to hair, KBD-B compared with comparison protein” value is reported as “significantly poorer binding”. Moreover, in the experiment on hair (human) [2] (human hair, detection via His tag with antibody-peroxidase conjugate and TMB), the “measured absorption values at 405 nm (quantitative KBD activity test hair)” value was “A405 nm = 0.088”.

B2: KBD-B (keratin-binding domain B of human desmoplakin), expressed by the vector pQE30-KBD-B in E. coli (SEQ ID No.: 166) (protein)
chain: MRGSHHHHHHGSACELEPHTGLLLLSVQKRSMSFQGIRQPVTVTELVDSGILRPSTVNELESGQISYDEVGERIKDFLQGSSCIAGIYNETTKQKLGIYEAMKIGLVRPGTALELLEAQAATGFIVDPVSNLRLPVEEAYKRGLVGIEFKEKLLSAERAVTGYNDPETGNIISLFQAMNKELIEKGHGIRLLEAQIATGGIIDPKESHRLPVDIAYKRGYFNEELSEILSDPSDDTKGFFDPNTEENLTYLQLKERCIKDEETGLCLLPLKEKKKQVQTSQKNTLRKRRVVIVDPETNKEMSVQEGVDLQPSLIS
In the case of B2, the Absorption at 405 nm in experiment [3] was 0.93; in [6], 0.254 A405 nm; in experiment [7] it was 0.185; in experiment [8], 1.59 A405 nm. The Relative absorption loss after 10% strength SDS treatment in % in [4] was 86%; in experiment [5] it was 80%.

B3: panthenol-coupled KBD-B: KBD-B (SEQ ID No.: 166) coupled via the maleimidocaproic acid linker with panthenol, Example 22 (conjugate, listed as Homo sapiens)
chain: MRGSHHHHHHGSACELEPHTGLLLLSVQKRSMSFQGIRQPVTVTELVDSGILRPSTVNELESGQISYDEVGERIKDFLQGSSCIAGIYNETTKQKLGIYEAMKIGLVRPGTALELLEAQAATGFIVDPVSNLRLPVEEAYKRGLVGIEFKEKLLSAERAVTGYNDPETGNIISLFQAMNKELIEKGHGIRLLEAQIATGGIIDPKESHRLPVDIAYKRGYFNEELSEILSDPSDDTKGFFDPNTEENLTYLQLKERCIKDEETGLCLLPLKEKKKQVQTSQKNTLRKRRVVIVDPETNKEMSVQEGVDLQPSLIS
modifications: maleimidocaproic linker-panthenol conjugate
With B3, in the experiment with hair (FIG. 7), the “influence of coupling reaction temperature on hair binding activity” value is “no decisive influence”. Besides, the “hair binding activity of the coupled protein” value is “decrease” in the experiment with hair (above a KBD-B:panthenol mixing ratio of 1:4 (FIG. 7)) and “remains virtually constant” in the experiment on hair (up to a KBD-B:panthenol mixing ratio of 1:2, compared with KBD-B without panthenol (FIG. 7)).

B4: KBD-B: keratin-binding domain B of human desmoplakin with N-terminal His tag, SEQ ID No.: 166, expressed in E. coli (protein, listed as Homo sapiens)
chain: MRGSHHHHHHGSACELEPHTGLLLLSVQKRSMSFQGIRQPVTVTELVDSGILRPSTVNELESGQISYDEVGERIKDFLQGSSCIAGIYNETTKQKLGIYEAMKIGLVRPGTALELLEAQAATGFIVDPVSNLRLPVEEAYKRGLVGIEFKEKLLSAERAVTGYNDPETGNIISLFQAMNKELIEKGHGIRLLEAQIATGGIIDPKESHRLPVDIAYKRGYFNEELSEILSDPSDDTKGFFDPNTEENLTYLQLKERCIKDEETGLCLLPLKEKKKQVQTSQKNTLRKRRVVIVDPETNKEMSVQEGVDLQPSLIS
For the molecule B4, the “binding to hair, KBD-B compared with comparison protein” value in the experiment with hair (human) [2] is recorded as “considerable superiority”. In addition, the “Relative absorption loss after 10% strength SDS treatment in %, skin” value in the experiment on human keratinocytes (relative to untreated skin) is listed as 80%. Also, the “Absorption at 405 nm, binding to skin after 10% strength SDS treatment” value in the experiment on human keratinocytes (values standardized to the surface, after 10% strength SDS treatment) is on record as 0.185. Further, in the experiment with human keratinocytes (values standardized to the surface, no SDS treatment), the “Absorption at 405 nm, binding to skin” value is listed as 0.93. The “Relative absorption loss after 10% strength SDS treatment in %, hair” value in the experiment on hair (human) [9] came to 86%.

Values taken from patent US20090098076A1, “Method For the Production of a Keratin-Binding Effector Molecule” (BASF SE, priority 2005, published 2009).
